{"source": "paper PMC5686127", "about": "“Accessibility of the histone H3 tail in the nucleosome for binding of paired readers” (Nature Communications, 2017)", "key": {"[1]": {"target": "nucleosome (NCP) with fluorescein-labelled DNA, for fluorescence polarization (human)", "assay": "fluorescence polarisation; increasing amounts of CHD4 PHD1/2, PHD1 or PHD2 added to 5 nM nucleosomes with fluorescein-labelled DNA; 15 mM Tris pH 7.5, 75 mM NaCl, 0.00625% Tween20, 3 mM DTT; apparent"}, "[2]": {"test_system": "LexA", "assay": "FRET (nucleosome unwrapping)", "settings": "FP: 15 mM Tris pH 7.5, 75 mM NaCl, 0.00625% Tween20, 3 mM DTT, 5 nM NCP, FRET: 15 mM Tris pH 7.5, 1 mM EDTA, 0.00625% Tween20, 25 nM NCP, NMR: …"}, "[3]": {"test_system": "CHD4 PHD1/2", "assay": "FRET (nucleosome unwrapping)", "settings": "1.4 uM LexA present, FP: 15 mM Tris pH 7.5, 75 mM NaCl, 0.00625% Tween20, 3 mM DTT, 5 nM NCP, FRET: 15 mM Tris pH 7.5, 1 mM EDTA, 0.00625% Tween20, 25 nM NCP, NMR: …"}, "[4]": {"test_system": "CHD4 PHD1/2", "assay": "fluorescence polarization", "settings": "75 mM NaCl, apparent Kd, FP: 15 mM Tris pH 7.5, 75 mM NaCl, 0.00625% Tween20, 3 mM DTT, 5 nM NCP, FRET: 15 mM Tris pH 7.5, 1 mM EDTA, 0.00625% Tween20, 25 nM NCP, NMR: …"}}}
{"substance": "CHD4 PHD1/2 (aa 361–503) (from UniProt Q14839 361-503) (domain or fragment)", "values": [{"measurement": "Kd", "setting": "[1]", "result": 630, "unit": "nM"}]}
{"substance": "Cy3-Cy5-NCP, 601 L with LexA site", "values": [{"measurement": "K half", "setting": "[2]", "result": 1400, "unit": "nM"}, {"measurement": "K half", "setting": "[3]", "result": 32, "unit": "µM"}]}
{"substance": "Fluorescein-NCP, 601 L with LexA site", "values": [{"measurement": "Kd", "setting": "[4]", "result": 630, "unit": "nM"}]}
